Measurements taken from patent US20250064909A1 (MEDIMABBIO, published 2025).
Read-outs that look alike come from different tables or passages of the source.

Tests used:
[1] = biological target: T1, TIGIT on cells (human primary T cells, PBMC, NK cells; Promega TIGIT effector cells) (human, UniProt Q495A1 22-244); experiment: cell-based or functional assay
T1 sequence: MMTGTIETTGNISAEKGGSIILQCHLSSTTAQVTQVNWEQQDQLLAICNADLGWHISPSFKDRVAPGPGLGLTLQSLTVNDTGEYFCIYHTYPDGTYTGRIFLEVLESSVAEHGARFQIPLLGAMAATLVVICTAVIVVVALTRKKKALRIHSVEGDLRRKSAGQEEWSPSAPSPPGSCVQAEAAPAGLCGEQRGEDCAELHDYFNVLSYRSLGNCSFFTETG

[2] = biological target: T2, recombinant human TIGIT (Sino Biological) (human, UniProt Q495A1 22-138); experiment: SPR (Biacore T200), single cycle kinetics, IgG from supernatant captured on anti-human chip, TIGIT as analyte, 1:1 fit;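 note: measured at 25 °C in HBS-P+ with 1% BSA, four ascending TIGIT concentrations, 210 s association per step, one final 900 s dissociation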
T2 construct: Bought protein; NP_776160.2; also called human TIGIT antigen; hTIGIT
T2 sequence: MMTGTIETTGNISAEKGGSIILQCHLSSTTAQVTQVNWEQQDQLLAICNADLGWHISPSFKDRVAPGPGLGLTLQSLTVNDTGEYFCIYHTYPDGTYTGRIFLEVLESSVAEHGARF

[3] = biological target: T1, TIGIT on cells (human primary T cells, …); experiment: cell-based or functional assay; remark: listed apart in the source
[4] = biological target: T1, TIGIT on cells (human primary T cells, …); experiment: cell-based or functional assay; remark: listed apart in the source
[5] = biological target: T1, TIGIT on cells (human primary T cells, …); experiment: cell-based or functional assay; remark: listed apart in the source
[6] = biological target: T3, recombinant human TIGIT (Acrobiosystems) (human, UniProt Q495A1 22-141); experiment: SPR (Biacore T200), multi-cycle kinetics, purified IgG captured on anti-human IgG CM5 chip, TIGIT as analyte, 1:1 fit
T3 construct: Bought protein; also called hTIGIT; human TIGIT antigen
T3 sequence: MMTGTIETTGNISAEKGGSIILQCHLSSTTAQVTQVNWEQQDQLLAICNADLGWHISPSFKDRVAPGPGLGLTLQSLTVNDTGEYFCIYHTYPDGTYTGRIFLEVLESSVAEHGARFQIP

[7] = biological target: T2, recombinant human TIGIT (Sino …); experiment: SPR single cycle kinetics; KD divided by KD of the VH0/Vκ0 chimeric antibody;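 note: biacore T200 SPR at 25 °C, IgG captured on anti-human chip, TIGIT analyte in four rising concentrations, 210 s association each, 900 s dissociation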

B1: anti-TIGIT 7A6 VH3/Vk5 humanized antibody (human IgG1, kappa) (antibody, V domains shown)
VH: QVQLQESGPGLVKPSQTLSLTCTVTGYSITSDYAWNWIRQPPGKGLEWMGYISYSGSARYNPSLKSRVTISRDTSKNQFSLKLSSVTAEDTATYYCARKGYPAYFAYWGQGTLVTVSS
VL: DIQMTQSPSSLSASVGDRVSITCKASQDVSTAVAWYQQKPGQAPRLLIYSASYRYTGVPDRFSGSGSGTDFTLTISSLQPEDFATYYCQHHYSTPYTFGQGTKLEIKR
notes: also called VH3Vκ5; 7A6 VH3/Vk5-IgG1
EC50, NFAT reporter luminescence (TIGIT effector cells + CD155 aAPC/CHO-K1 cells; blocked ligand PVR/CD155) [1]: 0.521 µg/mL | Kd [2]: 0.871 nM | koff [2]: 0.00161 s⁻¹ | kon [2]: 1.85e+06 M⁻¹ s⁻¹ | EC50 of the mixture with pembrolizumab (both antibodies at the same concentration), NFAT reporter luminescence (PD-1+TIGIT+ effector cells + PD-L1+CD155 aAPC/CHO-K1 cells) [3]: 0.399 µg/mL | EC50 of the mixture with nivolumab (both antibodies at the same concentration), NFAT reporter luminescence (PD-1+TIGIT+ effector cells + PD-L1+CD155 aAPC/CHO-K1 cells) [4]: 0.594 µg/mL | EC50 of the mixture with pembrolizumab (both antibodies at the same concentration), NFAT reporter luminescence (PD-1+TIGIT+ effector cells + PD-L1+CD155 aAPC/CHO-K1 cells) [4]: 0.38 µg/mL | EC50 of the mixture with nivolumab (both antibodies at the same concentration), NFAT reporter luminescence (PD-1+TIGIT+ effector cells + PD-L1+CD155 aAPC/CHO-K1 cells) [5]: 0.581 µg/mL | Kd [6]: 0.0867 nM | koff [6]: 0.000177 s⁻¹ | kon [6]: 2.04e+06 M⁻¹ s⁻¹ | Relative KD [7]: 1.34
